# Residue numbers refer to the chain shown, from its start. Names and notes keep the numbering of the source. Like-named read-outs stand apart in the source and are kept apart here.
# B1: P5A-2G9 (antibody, human IgG1, lambda, V domains shown)
# VH: QVQLVESGGGVVQPGRSLRLSCAASGFTFSSYGMHWVRQAPGKGLEWVAVIWYDGSNKYYADSVKGRFTISRDNSKNTLYLQMNSLRAEDTAVYYCARWFHTGGYFDYWGQGTLVTVSS
# VL: QPVLTQPPSSSASPGESARLTCTLPSDINVSSYNIYWYQQKPGSPPRYLLYYYSDSDKGQGSGVPSRFSGSKDASANTGILLISGLQSEDEADYYCMIWPSNALYVFGTGTKVTVLG
# B2: P5A-3C12 (antibody, human IgG1, kappa, V domains shown)
# VH: QITLKESGPTLVKPTQTLTLTCTFSGFSLSTSGVGVGWIRQPPGKALEWLALIYWDDDKRYSPSLKSRLTITKDTSKNQVVLTMTNMDPVDTATYYCAHSLFLTVGYSSSWSPFDYWGQGTLVTVSS
# VL: not shown
# B3: P5A-3C8 (antibody, human IgG1, kappa, V domains shown)
# VH: EVQLVESGGGLIQPGGSLRLSCAASGFTVSSNYMSWVRQAPGKGLEWVSFIYSGGSTYYADSVKGRFTISRDNSKNTLYLQMNSLRAEDTAVYYCARDLQEHGMDVWGQGTTVTVSS
# VL: DIQLTQSPSSLSASVGDRVTITCRASQGISSYLAWYQQKPGKAPKLLIYAASTLQSGVPSRFSGSGSGTDFTLTISSLQPEDFATYYCQHLNSYPPGYTFGQGTKLEIKR
# B4: P22A-1D1 (antibody, human IgG1, kappa, V domains shown)
# VH: B3 VH with F50V, L99R, Q100D, E101Y, H102Y
# VL: DIQLTQSPSFLSASVGDRVTITCRASQGISSYLAWYQQKPGKAPKLLIYAASTLQSGVPSRFSGSGSGTEFTLTISSLQPEDFATYYCLHLNSYRTFGLGTKVEIKR
# B5: P2B-1A1 (antibody, human IgG1, lambda, V domains shown)
# VH: QVQLQESGPGLVKPSETLSLTCTVSGGSISSYYWSWIRQPPGKGLEWIGYIYYSGSTNYNPSLKSRVTISVDTSKKQFSLKLSSVTAADTAVYYCARLERDWPLDAFDIWGQGTMVTVSS
# VL: QSALTQPASVSGSPGQSITISCTGTSSDVGGYNYVSWYQQHPGKAPKFMIYDVSKRPSGVSNRFSGSKSGNTASLTISGLQAEDEADYYCSSYTSNNTFAFGGGTKLTVLG
# B6: P2B-2G4 (antibody, V domains shown)
# VH: QVQLVESGGGVVQPGRSLRLSCAASGFTFSSYGMHWVRQAPGKGLEWVAVIWYDGSNKYYADSVKGRFTISRDNSKNTLYLQMNSLRAEDTAVYYCARGAAMVWLDYWGQGTLVTVSS
# VL: QSALTQPRSVSGSPGQSVTISCTGTSSDVGGYNYVSWYQQHPGKAPKLMIYDVSKRPSGVPDRFSGSKSGNTASLTISGLQAEDEADYYCCSYAGSYTFVVFGGGTKLTVLG
# B7: P5A-2G7 (antibody, human IgG1, lambda, V domains shown)
# VH: QVQLQESGPGLVKPSETLSLTCTVSGDSVSSGSYYWSWIRQPPGKGLEWIGYIYYSGSTNYNPSLKSRVTISVDTSKNQFSLKLSSVTAADTAVYYCARERCYYGSGRAPRCVWFDPWGQGTLVTVSS
# VL: B6 VL with R8A, V18I, K55N, P61S, D62N, C91S, A94T, G95S, Y97S, F99L
# B8: P2B-1E4 (antibody, human IgG1, lambda, V domains shown)
# VH: QITLKESGPTLVKPTQTLTLTCTFSGFSLSTSGVGVGWIRQPPGKALEWLALIYWDDDKRYSPSLKSRLTITKDTSKNQVVLTMTNMDPVDTATYYCAHQIVATIIDYWGQGTLVTVSS
# VL: QSALTQPASVSGSPGQSITISCTGTSSDVGGYNYVSWYQQHPGKAPKLMIYDVSKRPSGVSNRFSGSKSGNTASLTISGLQAEDEADYYCSSYTSSSVVFGGGTKLTVLG
# B9: P2B-1A10 (antibody, human IgG1, kappa, V domains shown)
# VH: EVQLVESGGGLIQPGGSLRLSCAASGFTVSSNYMSWVRQAPGKGLEWVSVIYSGGSTYYADSVKGRFTISRDNSKNTLYLQMNSLRAEDTAVYYCAREGPKSITGTAFDIWGQGTIVTVSS
# VL: DIQMTQSPSSLSASVGDRVTITCQASQDISNYFNWYQQKPGKAPKLLIYDASNLETGVPSRFSGSGSGTDFTFTISSLQPEDIATYYCQQYDNLPMYTFGQGTKLEIKR
# B10: P2B-1A10 (antibody, human IgG1, kappa, V domains shown)
# VH: B9 VH
# VL: B9 VL
# B11: P2A-1A9 (antibody, V domains shown)
# VH: EVQLVESGGGLVQPGRSLRLSCAASGFTFDDYAMHWVRQVPGKGLEWVSGISWNGGIIGYADSVKGRFTISRDNAKTSLYLQMNSLRAEDTALYYCAKVAGRGDYDYYYGMDVWGQGTTVTVSS
# VL: QSVLTQPPSVSGAPGQRVTISCTGSSSNIGAGYDVHWYQQLPGTAPKLLIYGNNNRPSGVPDRFSGSKSGTSASLAITGLQAEDEADYYCQSYDSSLSGSVFGGGTKLTVLG
# B12: P5A-1D2 (antibody, human IgG1, lambda, V domains shown)
# VH: EVQLVESGGGLIQPGGSLRLSCAASGFIVSSNYMSWVRQAPGKGLEWVSIIYSGGSTYYADSVKGRFTISRDNSNNTLYLQMNSLRAEDTAVYYCARALQVGATSDYFDYWGQGTLVTVSS
# VL: B11 VL with N54S, A86T, Y93C, G99V, S100V
# B13: P2B-2G11 (antibody, V domains shown)
# VH: B11 VH with V40A, R87K, A88P
# VL: B11 VL
# B14: P2A-1B3 (antibody, V domains shown)
# VH: EVQLVESGGGLVQPGGSLRLSCVASGFSFNRYSMNWLRQTPRKGLEWLSYISASGNTIYYADSVRGRFTTSRDNAKNTLYLQMNSLRDDDTAVYFCARPAMVREGTYNWFDPWGQGTLVTVSS
# VL: EIVLTQSPGTLSLSPGERATLSCRASQSVSNDYLAWYQQKPGQAPRLLIYYASSRATGIPDRFSGSGSGTDFTLTISRLEPGDSAVYYCQQYGDSPPITFGQGTRLEIKR
# B15: P2A-1B3 (antibody, V domains shown)
# VH: B14 VH
# VL: B14 VL
# B16: P2B-1D9 (antibody, human IgG1, lambda, V domains shown)
# VH: QITLKESGPTLVKPTQTLTLTCTFSGFSLSTSGVGVGWIRQPPGKALEWLALIYWDDDKYYSPSLKSRLTITKDTSKNQVVLTMTNMDPVDTATYYCAHTRILYYGSGSYYDYWGQGTLVTVSS
# VL: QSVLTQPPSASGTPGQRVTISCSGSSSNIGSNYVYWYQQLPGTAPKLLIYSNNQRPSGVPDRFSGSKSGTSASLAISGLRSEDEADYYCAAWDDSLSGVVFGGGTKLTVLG
# B17: P2A-1A8 (antibody, V domains shown)
# VH: EVQLVESGGDLVQPGRSLRLSCAASGFAFDDYAMHWVRQAPGKGLEWVSGSTWNSGTIAYADSVKGRFTISRDNAKKSLYLQMNSLRTEDTALYYCAKLGGYSDYDYPRPGDHYYGLDVWGQGTTVTVSS
# VL: QSALTQPASVSGSPGQSITISCTGTSSDVGSYNLVSWYQQHPGKVPKLLIYDVNKRPSGISNRFSGSKSGNTASLTISGLQAEDEADYYCRSYTDSNTYVFGTGTKVTVLG
# B18: P5A-1B8 (antibody, human IgG1, kappa, V domains shown)
# VH: EVQLVESGGGLIQPGGSLRLSCAASGFTVSSNYMSWVRQAPGKGLEWVSVIYPGGSTFYADSVKGRFTISRDNSKNTLYLQMNSLRAEDTAVYYCARETLAFDYWGQGTLVTVSS
# VL: DIQLTQSPSFLSASVGDRVTITCRASQGISSYLAWYQQKPGKAPKLLIYAASTLQSGVPSRFSGSGSGTEFTLTISSLQPEDFATYYCQQLNSYPPAFGGGTKVEIKR
# What was measured:
# [1] = molecular target: receptor-binding domain (RBD) of the spike protein of SARS-CoV-2 (SARS-CoV-2, UniProt P0DTC2 319-541)
# [2] = molecular target: T1, full length spike (S) protein of SARS-CoV-2 (SARS-CoV-2, UniProt P0DTC2 14-1273); assay: cell-based or functional assay
# [3] = molecular target: T1, full length spike (S) protein of …; assay: cell-based or functional assay; remark: listed apart in the source
# [4] = molecular target: full length spike (S) protein of SARS-CoV-2 on pseudovirus (SARS-CoV-2, UniProt P0DTC2 14-1273); assay: cell-based or functional assay
# [5] = molecular target: spike protein on live SARS-CoV-2 (SARS-CoV-2, UniProt P0DTC2 14-1273); assay: cell-based or functional assay
binder,measurement,setting,value
B1,Kd,[1],15.9 nM
B2,Kd,[1],8.47 nM
B3,Kd,[1],1.3 nM
B4,Kd,[1],5.79 nM
B5,"IC50, pseudovirus neutralization",[2],0.687 µg/mL
B6,"IC50, pseudovirus neutralization",[3],5.11 µg/mL
same,Neutralizing activity (%) Mean at 0.0228624 µg/ml,[3],-3.33%
same,Neutralizing activity (%) Mean at 0.0685871 µg/ml,[3],-8.88%
same,Neutralizing activity (%) Mean at 0.2057613 µg/ml,[3],10.4%
same,Neutralizing activity (%) Mean at 0.6172839 µg/ml,[3],20.2%
same,Neutralizing activity (%) Mean at 1.851852 µg/ml,[3],35.4%
same,Neutralizing activity (%) Mean at 5.555555 µg/ml,[3],46.4%
same,Neutralizing activity (%) Mean at 16.66667 µg/ml,[3],65.2%
same,Neutralizing activity (%) Mean at 50 µg/ml,[3],74.8%
B7,Kd,[1],3.95 nM
B8,"IC50, pseudovirus neutralization",[2],5.96 µg/mL
B9,"IC50, pseudovirus neutralization",[2],0.349 µg/mL
B10,Kd,[1],38.4 nM
B11,"IC50, pseudovirus neutralization",[3],26.3 µg/mL
same,Neutralizing activity (%) Mean at 0.0228624 µg/ml,[3],12.5%
same,Neutralizing activity (%) Mean at 0.0685871 µg/ml,[3],15.9%
same,Neutralizing activity (%) Mean at 0.2057613 µg/ml,[3],15.1%
same,Neutralizing activity (%) Mean at 0.6172839 µg/ml,[3],14.3%
same,Neutralizing activity (%) Mean at 1.851852 µg/ml,[3],15.9%
same,Neutralizing activity (%) Mean at 5.555555 µg/ml,[3],34.8%
same,Neutralizing activity (%) Mean at 16.66667 µg/ml,[3],41.2%
same,Neutralizing activity (%) Mean at 50 µg/ml,[3],62.6%
B12,Kd,[1],14 nM
B13,"IC50, pseudovirus neutralization",[3],34.8 µg/mL
same,Neutralizing activity (%) Mean at 0.0228624 µg/ml,[3],3.81%
same,Neutralizing activity (%) Mean at 0.0685871 µg/ml,[3],13.9%
same,Neutralizing activity (%) Mean at 0.2057613 µg/ml,[3],12.8%
same,Neutralizing activity (%) Mean at 1.851852 µg/ml,[3],16%
same,Neutralizing activity (%) Mean at 5.555555 µg/ml,[3],19%
same,Neutralizing activity (%) Mean at 16.66667 µg/ml,[3],25.9%
same,Neutralizing activity (%) Mean at 50 µg/ml,[3],64.4%
B14,"IC50, pseudovirus neutralization",[3],16.8 µg/mL
same,Neutralizing activity (%) Mean at 0.0228624 µg/ml,[3],11.5%
same,Neutralizing activity (%) Mean at 0.0685871 µg/ml,[3],-0.545%
same,Neutralizing activity (%) Mean at 0.2057613 µg/ml,[3],10.2%
same,Neutralizing activity (%) Mean at 0.6172839 µg/ml,[3],23.3%
same,Neutralizing activity (%) Mean at 1.851852 µg/ml,[3],22.1%
same,Neutralizing activity (%) Mean at 5.555555 µg/ml,[3],37.2%
same,Neutralizing activity (%) Mean at 16.66667 µg/ml,[3],43.6%
same,Neutralizing activity (%) Mean at 50 µg/ml,[3],74.9%
B15,Pseudovirus IC50,[4],16.8 µg/mL
same,Pseudovirus IC80,[4],> 50 µg/mL
B16,"IC50, pseudovirus neutralization",[2],3.12 µg/mL
B17,"IC50, live SARS-CoV-2 focus reduction neutralization test (FRNT)",[5],35.9 µg/mL
same,"IC50, pseudovirus neutralization",[3],7.68 µg/mL
same,Neutralizing activity (%) Mean at 0.0228624 µg/ml,[3],4.34%
same,Neutralizing activity (%) Mean at 0.0685871 µg/ml,[3],13.2%
same,Neutralizing activity (%) Mean at 0.2057613 µg/ml,[3],14.1%
same,Neutralizing activity (%) Mean at 0.6172839 µg/ml,[3],16.5%
same,Neutralizing activity (%) Mean at 1.851852 µg/ml,[3],26.7%
same,Neutralizing activity (%) Mean at 5.555555 µg/ml,[3],44.8%
same,Neutralizing activity (%) Mean at 16.66667 µg/ml,[3],67.8%
same,Neutralizing activity (%) Mean at 50 µg/ml,[3],88.2%
B18,Kd,[1],4.28 nM

# Source: US20210292392A1 (TSB THERAPEUTICS BEIJING, published 2021)
